# Where no end group is shown, it is not given here.
# Assays:
# [1] = target: receptor on murine NIH-3T3 fibroblast cells (ATCC No. CCL92) to which 125I-GRP binds (murine, UniProt P21729); test: competition with 0.45 pM 125I-GRP on NIH-3T3 cells, filter assay
# Method: Each tube was charged with 4 ×10^4 cells. […] Three control tubes with no cells or competitor were prepared for measurement of total counts added.
# The samples were incubated for 30 min at RT. The contents of each tube were transferred into the wells of a 96-well filter bottom plate (Millipore Multiscreen, Arlington Heights, Mass.) and filtered under moderate vacuum (water aspirator). Each filter was washed three times by filling each well with ice cold PBS, Ph 7.4, 0.1% BSA. The plate was allowed to dry. Dried filters were placed into gamma-counter tubes (12×75 mm glass). The radioactivity on each filter and in the control tubes was counted using a LKB gamma counter. The bound/total added for each assay tube was calculated.
# [2] = target: receptor on murine NIH-3T3 fibroblast cells (ATCC No. CCL92) to which 125I-GRP binds (murine) (UniProt P21729); test: competition with […] 125I-GRP on NIH-3T3 cells; inhibitor at 1 nM
# Chain of receptor on murine NIH-3T3 fibroblast cells (ATCC No. CCL92) to which 125I-GRP binds (murine) (P21729 whole entry): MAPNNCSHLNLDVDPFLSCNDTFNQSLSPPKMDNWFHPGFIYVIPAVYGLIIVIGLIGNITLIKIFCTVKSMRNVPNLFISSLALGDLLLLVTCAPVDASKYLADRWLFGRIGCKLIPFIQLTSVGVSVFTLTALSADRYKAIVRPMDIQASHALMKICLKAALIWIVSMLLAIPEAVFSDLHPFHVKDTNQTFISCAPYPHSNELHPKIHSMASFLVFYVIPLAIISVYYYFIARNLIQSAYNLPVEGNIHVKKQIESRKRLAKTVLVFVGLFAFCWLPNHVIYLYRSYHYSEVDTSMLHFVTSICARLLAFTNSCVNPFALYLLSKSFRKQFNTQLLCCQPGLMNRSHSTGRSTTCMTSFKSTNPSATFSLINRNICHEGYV
# [3] = target: receptor on murine NIH-3T3 fibroblast cells (ATCC No. CCL92) to which 125I-GRP binds (murine) (UniProt P21729); test: competition with […] 125I-GRP on NIH-3T3 cells; inhibitor at 10 nM
# [4] = target: receptor on murine NIH-3T3 fibroblast cells (ATCC No. CCL92) to which 125I-GRP binds (murine) (UniProt P21729); test: competition with […] 125I-GRP on NIH-3T3 cells; inhibitor at 100 nM
IC50 [1],% BOUND (of I-125-GRP) [2],% INHIBITION [2],AVG CPM BOUND (of I-125-GRP) [2],% BOUND (of I-125-GRP) [3],% INHIBITION [3],AVG CPM BOUND (of I-125-GRP) [3],% BOUND (of I-125-GRP) [4],% INHIBITION [4],AVG CPM BOUND (of I-125-GRP) [4],Binder
43.3 nM,,,,,,,,,,"Ac-GNHWAVGHLM (not fully specified (C-terminus); also: dimer: two chains on one 3,5-disubstituted benzoic acid via C-terminal thiosemicarbazides) [Benzoic acid bis-thiosemicarbazide derived from N-acetyl-Neuromedin C-hydrazide, compound 6]"
,2.2%,63%,1420 CPM,1.7%,71%,1130 CPM,1.4%,76%,940 CPM,"H-GNHWAVGHLM-NH2 [Neuromedin C (NMc, H-Gly-Asn-His-Trp-Ala-Val-Gly-His-Leu-Met-NH2)]"
10.6 nM,,,,,,,,,,"GNHWAVGHLM-NH2 (not fully specified (N-terminus); also: dimer: two chains on one 3,5-disubstituted benzoic acid via N-terminal thioureas) [Benzoic acid bis-thiourea derived from Neuromedin-C, compound 3]"

# — patent publication US5578288, “Metal-binding targeted polypeptide constructs” (Cytogen Corporation, dated 1996)
